B1: Caveolin-1 (Homo sapiens), Q03135 (parent)
chain: MSGGKYVDSEGHLYTVPIREQGNIYKPNNKAMADELSEKQVYDAHTKEIDLVNRDPKHLNDDVVKIDFEDVIAEPEGTHSFDGIWKASFTTFTVTKYWFYRLLSALFGIPMALIWGIYFAILSFLHIWAVVPCIKSFLIEIQCISRVYSIYVHTVCDPLFEAVGKIFSNVRINLQKEI
partner: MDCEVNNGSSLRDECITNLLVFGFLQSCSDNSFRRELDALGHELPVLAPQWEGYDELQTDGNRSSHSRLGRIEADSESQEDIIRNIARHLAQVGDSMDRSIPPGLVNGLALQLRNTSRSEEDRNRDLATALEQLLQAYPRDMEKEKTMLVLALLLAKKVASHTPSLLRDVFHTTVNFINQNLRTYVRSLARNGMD

This experiment covers variants of B1. Conditions: with bid_human BID.
On to MSGGKYVDSEGHLFTVPIREQGNIYKPNNKAMADELSEKQVYDAHTKEIDLVNRDPKHLNDDVVKIDFEDVIAEPEGTHSFDGIWKASFTTFTVTKYWFYRLLSALFGIPMALIWGIYFAILSFLHIWAVVPCIKSFLIEIQCISRVYSIYVHTVCDPLFEAVGKIFSNVRINLQKEI, for which the “effect of a mutation on the interaction” value is on record as “disrupting interaction”.

The record behind these values is IntAct's records for PubMed 21382479.
